Measurements from patent US6890726, “Method for selecting recombinase variants with altered specificity” (Oklahoma Medical Research Foundation).
Changes are numbered by the printed parent chain.

How the values were obtained:
Details in all cases: chain copies: 4
Cre E262W = Cre E262W (UniProt P06956 P06956:1-343, E262W); experiment: cell_activity; similar to E262G
Description: (§1) The three defined Cre mutants for the amino acid position 262 were subjected to a functional test for loxK2, loxK1 and loxP recombination activity, as mentioned before. […] To conclude, this final experiment provides the necessary evidence that the E262G mutation presents the basis for the observed decrease in specificity of Cre. However, additional mutations seem to be helpful to increase the newly obtained activity further. In addition, glycine at position 262 is not the only possible residue to permit a remarkable increase in loxK2 activity.
(§2) The results of functional testing of three defined Cre mutants for position 262 compared to wt Cre are listed. All enzymes were checked on loxK2, loxP and loxK1 recombination in the selection strains BS1494, BS1493 and the control strain BS1541. In the first column the Cre candidate is indicated, in the second the allowed time for cre expression. The three following columns show the calculated percentages of Kan^R when subjecting the different Cre mutants and wt Cre to the three selection strains. The frequency of the observed Kan^R phenotype is considered as an indicator for the frequency of […] recombination: On loxK2, E262G and E262W show approximately an 10^3 fold increased Kan^R frequency compared to wt Cre, whereas E262A results in a 200 fold increase. […]

Cre R3M2 (mxoxox 2) = biological target: T1, Cre R3M2 (mxoxox 2) (UniProt P06956 SEQ:1-343); experiment: cell_activity; E. coli
T1 chain: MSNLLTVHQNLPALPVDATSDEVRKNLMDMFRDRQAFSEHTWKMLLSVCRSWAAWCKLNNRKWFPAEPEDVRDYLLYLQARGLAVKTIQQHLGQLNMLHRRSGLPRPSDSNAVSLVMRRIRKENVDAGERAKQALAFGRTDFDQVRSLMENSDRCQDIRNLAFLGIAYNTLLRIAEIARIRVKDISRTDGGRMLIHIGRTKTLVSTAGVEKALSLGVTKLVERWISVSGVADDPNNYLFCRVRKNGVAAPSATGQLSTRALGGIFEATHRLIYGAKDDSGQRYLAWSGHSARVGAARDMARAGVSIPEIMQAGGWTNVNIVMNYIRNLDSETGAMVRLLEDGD

Cre R3M3 (mxoxox 3) = biological target: T2, Cre R3M3 (mxoxox 3) (UniProt P06956 SEQ:1-343); experiment: cell_activity; E. coli
T2 chain: T1 chain with V16I, G138E, D189N, G198S, R223Q, G254S, Q255R, P307L

Cre R3M1 (mxoxox 1) = biological target: T3, Cre R3M1 (mxoxox 1) (UniProt P06956 SEQ:1-343); experiment: cell_activity; E. coli
T3 chain: T1 chain with D29A, G138E, D189N, V227I, G254S

Cre E262A = Cre E262A (UniProt P06956 P06956:1-343, E262A); experiment: cell_activity; E. coli
Description: as §1, §2

B1: loxK2 (selection plasmid pBS584) (dsDNA)
DNA 1: GATACAACGTATATACCTTTCTATACGTTGTATT
DNA 2: AATACAACGTATAGAAAGGTATATACGTTGTATC
Work on B1 yielded an activity (Cre E262W) of about 1000 fold vs wt, an activity (Cre R3M2 (mxoxox 2)) of about 50 % recombination and an activity (Cre R3M3 (mxoxox 3)) of about 50 % recombination. For the same binder, the activity (Cre R3M1 (mxoxox 1)) was about 50 % recombination and the activity (Cre E262A) was 200 fold vs wt.
